# From paper PMC6463007
# Biological target: E. coli GyrB (DNA gyrase subunit B) (E. coli) (UniProt P0AES6)
# Chain of E. coli GyrA (DNA gyrase subunit A) (P0AES4 whole entry): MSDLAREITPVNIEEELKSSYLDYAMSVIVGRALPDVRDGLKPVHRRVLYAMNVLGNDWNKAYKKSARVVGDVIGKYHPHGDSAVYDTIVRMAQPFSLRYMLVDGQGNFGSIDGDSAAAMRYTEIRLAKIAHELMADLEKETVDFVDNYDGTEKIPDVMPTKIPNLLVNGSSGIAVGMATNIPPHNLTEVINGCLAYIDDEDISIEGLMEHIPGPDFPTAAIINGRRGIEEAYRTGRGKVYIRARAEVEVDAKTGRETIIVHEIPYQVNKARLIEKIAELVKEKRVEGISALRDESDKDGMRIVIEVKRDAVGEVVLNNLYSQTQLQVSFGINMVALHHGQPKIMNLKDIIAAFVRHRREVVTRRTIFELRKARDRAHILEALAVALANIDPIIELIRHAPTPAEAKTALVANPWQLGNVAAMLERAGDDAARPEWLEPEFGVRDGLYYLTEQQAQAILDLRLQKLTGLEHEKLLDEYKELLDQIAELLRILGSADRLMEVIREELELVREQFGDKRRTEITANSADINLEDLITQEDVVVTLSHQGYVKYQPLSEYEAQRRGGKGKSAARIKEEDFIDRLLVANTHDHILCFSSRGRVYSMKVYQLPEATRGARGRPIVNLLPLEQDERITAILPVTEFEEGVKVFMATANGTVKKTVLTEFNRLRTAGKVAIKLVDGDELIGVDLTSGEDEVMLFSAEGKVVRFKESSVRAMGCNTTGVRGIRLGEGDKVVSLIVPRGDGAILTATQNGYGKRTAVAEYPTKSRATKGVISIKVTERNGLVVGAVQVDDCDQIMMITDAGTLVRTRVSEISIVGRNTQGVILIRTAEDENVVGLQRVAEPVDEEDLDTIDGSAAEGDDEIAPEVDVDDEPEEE
substance,measurement,value
E. coli GyrA (DNA gyrase subunit A) (from UniProt P0AES4 1-875) (enzyme),"supercoiling of relaxed pMP1000 plasmid by gyrase reconstituted from the two purified subunits; time course 5-80 s after ATP, 30 °C, chloroquine gel (supercoils/sec)",5
